± gives the uncertainty stated by the source.
B1: Advillin, residues 785 to 819; numbered along this chain, O75366 (parent)
chain: LSEQDFVSVFGITRGQFAALPGWKQLQMKKEKGLF

Variants of: B1
Assay: abundance fitness (aPCA) (normalised: wild type 0, dead -1); higher = more abundant; growth selection in yeast, the domain comes from the species named
Settings: Homo sapiens

Row | Variant | abundance fitness
1 | LSEQDFVSVFGITRGQFAALPGWKQLQRKKEKGLF [M28R] | -1.14 ± 0.11
2 | LSEQDFVSVFGITRGQFAALPGWKQLQCKKEKGLF [M28C] | -0.75 ± 0.16
3 | LSEQDFVSVFGITRGQFAALPGWPQLQMKKEKGLF [K24P] | -0.475 ± 0.12
4 | LSEQDFVSVFGITRGQFAALPGWHQLQMKKEKGLF [K24H] | -0.61 ± 0.34
5 | LSEQDFVSVFGITRGQFAALPGWGQLQMKKEKGLF [K24G] | -0.488 ± 0.089
6 | LSEQDFVSVFGITRGQFAALPGWDQLQMKKEKGLF [K24D] | -0.143 ± 0.1
7 | LSEQDFVSVFGITRGQFAALPGWCQLQMKKEKGLF [K24C] | -0.342 ± 0.11
8 | LSEQDFVSVFGITRGQFAALPGWQQLQMKKEKGLF [K24Q] | -0.072 ± 0.086
9 | LSEQDFVSVFGITRGQFAALPGWNQLQMKKEKGLF [K24N] | -0.433 ± 0.23
10 | LSEQDFVSVFGITRGQFAALPGWTQLQMKKEKGLF [K24T] | -0.446 ± 0.3
11 | LSEQDFVSVFGITRGQFAALPGWRQLQMKKEKGLF [K24R] | -0.159 ± 0.066
12 | LSEQDFVSVFGITRGQFAALPGWYQLQMKKEKGLF [K24Y] | -0.805 ± 0.49
13 | LSEQDFVSVFGITRGQFAALPGWEQLQMKKEKGLF [K24E] | -0.142 ± 0.097
14 | LSEQDFVSVFGITRGQFAALPGWSQLQMKKEKGLF [K24S] | -0.304 ± 0.097
15 | LSEQDFVSVFGITRGQFAALPGWIQLQMKKEKGLF [K24I] | -0.148 ± 0.14
16 | LSEQDFVSVFGITRGQFAALPGWMQLQMKKEKGLF [K24M] | -0.098 ± 0.12
17 | LSEQDFVSVFGITRGQFAALPGWVQLQMKKEKGLF [K24V] | -0.279 ± 0.12
18 | LSEQDFVSVFGITRGQFAALPGWFQLQMKKEKGLF [K24F] | -0.403 ± 0.16
19 | LSEQDFVSVFGITRGQFAALPGQKQLQMKKEKGLF [W23Q] | -0.213 ± 0.093
20 | LSEQDFVSVFGITRGQFAALPGFKQLQMKKEKGLF [W23F] | -0.22 ± 0.19
21 | LSEQDFVSVFGITRGQFAALPGMKQLQMKKEKGLF [W23M] | -0.108 ± 0.14
22 | LSEQDFVSVFGITRGQFAALPGDKQLQMKKEKGLF [W23D] | 0.005 ± 0.098
23 | LSEQDFVSVFGITRGQFAALPGKKQLQMKKEKGLF [W23K] | -0.042 ± 0.077
24 | LSEQDFVSVFGITRGQFAALPGSKQLQMKKEKGLF [W23S] | -0.092 ± 0.061

Row | Variant | abundance fitness
25 | LSEQDFVSVFGITRGQFAALPGVKQLQMKKEKGLF [W23V] | -0.11 ± 0.078
26 | LSEQDFVSVFGITRGQFAALPGPKQLQMKKEKGLF [W23P] | -0.188 ± 0.065
27 | LSEQDFVSVFGITRGQFAALPGYKQLQMKKEKGLF [W23Y] | -0.211 ± 0.14
28 | LSEQDFVSVFGITRGQFAALPGTKQLQMKKEKGLF [W23T] | -0.228 ± 0.067
29 | LSEQDFVSVFGITRGQFAALPGIKQLQMKKEKGLF [W23I] | -0.284 ± 0.1
30 | LSEQDFVSVFGITRGQFAALPGAKQLQMKKEKGLF [W23A] | -0.134 ± 0.062
31 | LSEQDFVSVFGITRGQFAALPGNKQLQMKKEKGLF [W23N] | -0.319 ± 0.09
32 | LSEQDFVSVFGITRGQFAALPGEKQLQMKKEKGLF [W23E] | 0.081 ± 0.063
33 | LSEQDFVSVFGITRGQFAALPGCKQLQMKKEKGLF [W23C] | -0.235 ± 0.11
34 | LSEQDFVSVFGITRGQFAALPGHKQLQMKKEKGLF [W23H] | -0.101 ± 0.086
35 | LSEQDFVSVFGITRGQFAALPGLKQLQMKKEKGLF [W23L] | -0.233 ± 0.064
36 | LSEQDFVSVFGITRGQFAALPGGKQLQMKKEKGLF [W23G] | -0.238 ± 0.056
37 | LSEQDFVSVFGITRGQFAALPGRKQLQMKKEKGLF [W23R] | -0.202 ± 0.058
38 | LSEQDFVSVFGITRGQFAALPGWKQLLMKKEKGLF [Q27L] | -0.297 ± 0.061
39 | LSEQDFVSVFGITRGQFAALPGWKQLDMKKEKGLF [Q27D] | -0.3 ± 0.21
40 | LSEQDFVSVFGITRGQFAALPGWKQLAMKKEKGLF [Q27A] | -0.125 ± 0.061
41 | LSEQDFVSVFGITRGQFAALPGWKQLPMKKEKGLF [Q27P] | -0.589 ± 0.083
42 | LSEQDFVSVFGITRGQFAALPGWKQLSMKKEKGLF [Q27S] | -0.183 ± 0.063
43 | LSEQDFVSVFGITRGQFAALPGWKQLHMKKEKGLF [Q27H] | 0.108 ± 0.26
44 | LSEQDFVSVFGITRGQFAALPGWKQLVMKKEKGLF [Q27V] | -0.139 ± 0.058
45 | LSEQDFVSVFGITRGQFAALPGWKQLCMKKEKGLF [Q27C] | -0.432 ± 0.084
46 | LSEQDFVSVFGITRGQFAALPGWKQLFMKKEKGLF [Q27F] | -0.416 ± 0.3
47 | LSEQDFVSVFGITRGQFAALPGWKQLRMKKEKGLF [Q27R] | -0.186 ± 0.052
48 | LSEQDFVSVFGITRGQFAALPGWKQLWMKKEKGLF [Q27W] | -0.37 ± 0.066

Row | Variant | abundance fitness
49 | LSEQDFVSVFGITRGQFAALPGWKQLKMKKEKGLF [Q27K] | -0.064 ± 0.063
50 | LSEQDFVSVFGITRGQFAALPGWKQLMMKKEKGLF [Q27M] | -0.293 ± 0.11
51 | LSEQDFVSVFGITRGQFAALPGWKQLGMKKEKGLF [Q27G] | -0.333 ± 0.061
52 | LSEQDFVSVFGITRGQFAALPGWKQLTMKKEKGLF [Q27T] | -0.459 ± 0.07
53 | LSEQDFVSVFGITRGQFAALPGWKQLEMKKEKGLF [Q27E] | 0.098 ± 0.075
54 | LSEQDFVSVFGITRGQFAALIGWKQLQMKKEKGLF [P21I] | -0.536 ± 0.15
55 | LSEQDFVSVFGITRGQFAALRGWKQLQMKKEKGLF [P21R] | -0.614 ± 0.056
56 | LSEQDFVSVFGITRGQFAALMGWKQLQMKKEKGLF [P21M] | -0.64 ± 0.16
57 | LSEQDFVSVFGITRGQFAALCGWKQLQMKKEKGLF [P21C] | -0.436 ± 0.11
58 | LSEQDFVSVFGITRGQFAALDGWKQLQMKKEKGLF [P21D] | -0.54 ± 0.11
59 | LSEQDFVSVFGITRGQFAALAGWKQLQMKKEKGLF [P21A] | -0.414 ± 0.061
60 | LSEQDFVSVFGITRGQFAALFGWKQLQMKKEKGLF [P21F] | -0.696 ± 0.21
61 | LSEQDFVSVFGITRGQFAALQGWKQLQMKKEKGLF [P21Q] | -0.271 ± 0.17
62 | LSEQDFVSVFGITRGQFAALYGWKQLQMKKEKGLF [P21Y] | -0.668 ± 0.11
63 | LSEQDFVSVFGITRGQFAALNGWKQLQMKKEKGLF [P21N] | -0.51 ± 0.23
64 | LSEQDFVSVFGITRGQFAALEGWKQLQMKKEKGLF [P21E] | -0.246 ± 0.057
65 | LSEQDFVSVFGITRGQFAALWGWKQLQMKKEKGLF [P21W] | -0.617 ± 0.12
66 | LSEQDFVSVFGITRGQFAALLGWKQLQMKKEKGLF [P21L] | -0.509 ± 0.064
67 | LSEQDFVSVFGITRGQFAALGGWKQLQMKKEKGLF [P21G] | -0.32 ± 0.067
68 | LSEQDFVSVFGITRGQFAALSGWKQLQMKKEKGLF [P21S] | -0.225 ± 0.079
69 | LSEQDFVSVFGITRGQFAALHGWKQLQMKKEKGLF [P21H] | -0.534 ± 0.085
70 | LSEQDFVSVFGITRGQFAALKGWKQLQMKKEKGLF [P21K] | -0.413 ± 0.095
